Results reported in publication PMC2174084 (The Journal of Cell Biology, 2002).
Residue numbers refer to the chain shown, from its start. Names may count otherwise. No end group written: not given here.

B1: Kelch repeat 5 (L594-L640) (domain or fragment)
chain: LYAVGGHDGPMVRRSVEAYDCETNSWRSVADMSYCRRNAGVVAHDGL
modifications: cysteine pairing not given here; also: biotin-labeled, place not given here
B2: Kelch repeat 5 (L594-[Y627A]-L640) (domain or fragment)
chain: B1 chain with Y34A
modifications: cysteine pairing not given here; also: biotin-labeled, place not given here
B3: Kelch repeat 5 (L594-[Y627D]-L640) (domain or fragment)
chain: B1 chain with Y34D
modifications: cysteine pairing not given here; also: biotin-labeled, place not given here
B4: Kelch repeat 5 (L594-[Y627F]-L640) (domain or fragment)
chain: B1 chain with Y34F
modifications: cysteine pairing not given here; also: biotin-labeled, place not given here

Target: rabbit skeletal muscle actin, polymerized (F-actin) (rabbit, UniProt P68135 1-377)
Test: co-sedimentation

Row | Binder | binding result | percent of the protein sedimenting with actin
1 | B1 | binds | 
2 | B2 |  | 100%
3 | B3 |  | < 50%
4 | B4 |  | 100%
